Source: PMC11601465

Experiments:
[1] = target: Nyl50; experiment: AUC
[2] = target: Nyl50; experiment: SEC
[3] = target: Nyl50; experiment: AUC; remark: listed apart in the source

stoichiometry N [1]: 4 | stoichiometry N [2]: 2 | stoichiometry N [3]: 2
Substance: Nyl50 (enzyme)
